The assay deals with T1, FcγRIIa R (human, UniProt P12318 34-217).
T1 construct: extracellular domain; also called FcgRIIa R type; 2aR
T1 sequence (looked up): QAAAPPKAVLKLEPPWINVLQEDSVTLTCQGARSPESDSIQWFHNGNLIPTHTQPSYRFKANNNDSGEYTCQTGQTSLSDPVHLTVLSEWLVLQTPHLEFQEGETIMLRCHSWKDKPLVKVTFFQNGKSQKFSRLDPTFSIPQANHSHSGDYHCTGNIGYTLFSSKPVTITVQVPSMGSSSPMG
The experiment in a line: SPR (Biacore), captured antibody, FcγR as analyte; relative binding activity. For orientation: SPR reads the build-up and loss of mass on a sensor chip optically.

B1: GpH7-A5/GpH7-B3 variant H268_20W/GpL16-k0 (antibody, human IgG1, kappa)
heavy 1: not shown
heavy 2: not shown
light: DIVMTQSPLSLPVTPGEPASISCQASESLVHSNRNTYLHWYLQKPGQSPQLLIYKVSNRFSGVPDRFSGSGSGTDFTLKISRVEAEDVGVYYCSQNTHVPPTFGQGTKVEIERTVAAPSVFIFPPSDEQLKSGTASVVCLLNNFYPREAKVQWKVDNALQSGNSQESVTEQDSKDSTYSLSSTLTLSKADYEKHKVYACEVTHQGLSSPVTKSFNRGEC
notes: also called He Ab H268_20W
For B1, the He/Con_2aR was 113 % (GpH7-A5/GpH7-B3/GpL16-k0 = 100).

B2: GpH7-A5/GpH7-B3 variant K334_13S/GpL16-k0 (antibody, human IgG1, kappa)
heavy 1: not shown
heavy 2: not shown
light: DIVMTQSPLSLPVTPGEPASISCQASESLVHSNRNTYLHWYLQKPGQSPQLLIYKVSNRFSGVPDRFSGSGSGTDFTLKISRVEAEDVGVYYCSQNTHVPPTFGQGTKVEIERTVAAPSVFIFPPSDEQLKSGTASVVCLLNNFYPREAKVQWKVDNALQSGNSQESVTEQDSKDSTYSLSSTLTLSKADYEKHKVYACEVTHQGLSSPVTKSFNRGEC
notes: also called He Ab K334_13S
Turning to B2, the He/Con_2aR was 109 % (GpH7-A5/GpH7-B3/GpL16-k0 = 100).

B3: GpH7-A5/GpH7-B3 variant K334_05P/GpL16-k0 (antibody, human IgG1, kappa)
heavy 1: not shown
heavy 2: not shown
light: DIVMTQSPLSLPVTPGEPASISCQASESLVHSNRNTYLHWYLQKPGQSPQLLIYKVSNRFSGVPDRFSGSGSGTDFTLKISRVEAEDVGVYYCSQNTHVPPTFGQGTKVEIERTVAAPSVFIFPPSDEQLKSGTASVVCLLNNFYPREAKVQWKVDNALQSGNSQESVTEQDSKDSTYSLSSTLTLSKADYEKHKVYACEVTHQGLSSPVTKSFNRGEC
notes: also called He Ab K334_05P
With B3, the He/Con_2aR was 103 % (GpH7-A5/GpH7-B3/GpL16-k0 = 100).

B4: GpH7-A5/GpH7-B3 variant K326_07I/GpL16-k0 (antibody, human IgG1, kappa)
heavy 1: not shown
heavy 2: not shown
light: DIVMTQSPLSLPVTPGEPASISCQASESLVHSNRNTYLHWYLQKPGQSPQLLIYKVSNRFSGVPDRFSGSGSGTDFTLKISRVEAEDVGVYYCSQNTHVPPTFGQGTKVEIERTVAAPSVFIFPPSDEQLKSGTASVVCLLNNFYPREAKVQWKVDNALQSGNSQESVTEQDSKDSTYSLSSTLTLSKADYEKHKVYACEVTHQGLSSPVTKSFNRGEC
notes: also called He Ab K326_07I
Regarding B4, the He/Con_2aR is 147 % (GpH7-A5/GpH7-B3/GpL16-k0 = 100).

B5: GpH7-A5/GpH7-B3 variant K334_12R/GpL16-k0 (antibody, human IgG1, kappa)
heavy 1: not shown
heavy 2: not shown
light: DIVMTQSPLSLPVTPGEPASISCQASESLVHSNRNTYLHWYLQKPGQSPQLLIYKVSNRFSGVPDRFSGSGSGTDFTLKISRVEAEDVGVYYCSQNTHVPPTFGQGTKVEIERTVAAPSVFIFPPSDEQLKSGTASVVCLLNNFYPREAKVQWKVDNALQSGNSQESVTEQDSKDSTYSLSSTLTLSKADYEKHKVYACEVTHQGLSSPVTKSFNRGEC
notes: also called He Ab K334_12R
Turning to B5, the He/Con_2aR is 111 % (GpH7-A5/GpH7-B3/GpL16-k0 = 100).

B6: GpH7-A5/GpH7-B3 variant K326_20W/GpL16-k0 (antibody, human IgG1, kappa)
heavy 1: not shown
heavy 2: not shown
light: DIVMTQSPLSLPVTPGEPASISCQASESLVHSNRNTYLHWYLQKPGQSPQLLIYKVSNRFSGVPDRFSGSGSGTDFTLKISRVEAEDVGVYYCSQNTHVPPTFGQGTKVEIERTVAAPSVFIFPPSDEQLKSGTASVVCLLNNFYPREAKVQWKVDNALQSGNSQESVTEQDSKDSTYSLSSTLTLSKADYEKHKVYACEVTHQGLSSPVTKSFNRGEC
notes: also called He Ab K326_20W
Take B6: the He/Con_2aR was 131 % (GpH7-A5/GpH7-B3/GpL16-k0 = 100).

B7: GpH7-A5/GpH7-B3 variant K326_04F/GpL16-k0 (antibody, human IgG1, kappa)
heavy 1: not shown
heavy 2: not shown
light: DIVMTQSPLSLPVTPGEPASISCQASESLVHSNRNTYLHWYLQKPGQSPQLLIYKVSNRFSGVPDRFSGSGSGTDFTLKISRVEAEDVGVYYCSQNTHVPPTFGQGTKVEIERTVAAPSVFIFPPSDEQLKSGTASVVCLLNNFYPREAKVQWKVDNALQSGNSQESVTEQDSKDSTYSLSSTLTLSKADYEKHKVYACEVTHQGLSSPVTKSFNRGEC
notes: also called He Ab K326_04F
Turning to B7, the He/Con_2aR is 135 % (GpH7-A5/GpH7-B3/GpL16-k0 = 100).

B8: GpH7-A5/GpH7-B3 variant K334_08L/GpL16-k0 (antibody, human IgG1, kappa)
heavy 1: not shown
heavy 2: not shown
light: DIVMTQSPLSLPVTPGEPASISCQASESLVHSNRNTYLHWYLQKPGQSPQLLIYKVSNRFSGVPDRFSGSGSGTDFTLKISRVEAEDVGVYYCSQNTHVPPTFGQGTKVEIERTVAAPSVFIFPPSDEQLKSGTASVVCLLNNFYPREAKVQWKVDNALQSGNSQESVTEQDSKDSTYSLSSTLTLSKADYEKHKVYACEVTHQGLSSPVTKSFNRGEC
notes: also called He Ab K334_08L
As for B8, the He/Con_2aR is 106 % (GpH7-A5/GpH7-B3/GpL16-k0 = 100).

B9: GpH7-A5/GpH7-B3 variant K326_08L/GpL16-k0 (antibody, human IgG1, kappa)
heavy 1: not shown
heavy 2: not shown
light: DIVMTQSPLSLPVTPGEPASISCQASESLVHSNRNTYLHWYLQKPGQSPQLLIYKVSNRFSGVPDRFSGSGSGTDFTLKISRVEAEDVGVYYCSQNTHVPPTFGQGTKVEIERTVAAPSVFIFPPSDEQLKSGTASVVCLLNNFYPREAKVQWKVDNALQSGNSQESVTEQDSKDSTYSLSSTLTLSKADYEKHKVYACEVTHQGLSSPVTKSFNRGEC
notes: also called He Ab K326_08L
For B9, the He/Con_2aR was 137 % (GpH7-A5/GpH7-B3/GpL16-k0 = 100).

B10: GpH7-A5/GpH7-B3 variant I332_06M/GpL16-k0 (antibody, human IgG1, kappa)
heavy 1: not shown
heavy 2: not shown
light: DIVMTQSPLSLPVTPGEPASISCQASESLVHSNRNTYLHWYLQKPGQSPQLLIYKVSNRFSGVPDRFSGSGSGTDFTLKISRVEAEDVGVYYCSQNTHVPPTFGQGTKVEIERTVAAPSVFIFPPSDEQLKSGTASVVCLLNNFYPREAKVQWKVDNALQSGNSQESVTEQDSKDSTYSLSSTLTLSKADYEKHKVYACEVTHQGLSSPVTKSFNRGEC
notes: also called He Ab I332_06M
B10: the He/Con_2aR was 109 % (GpH7-A5/GpH7-B3/GpL16-k0 = 100).
